In experiment [1] the target is P. aeruginosa PAO1 SPase (LepB) P84L, in the bacteria (P. aeruginosa), Q9I5G7. Briefly: cell-based or functional assay.
The target of experiment [2] is E. coli SPase with each of the other 19 amino acids at residue 84, in mutant strains of E. coli. Briefly: cell-based or functional assay.

B1: arylomycin C16 (peptide)
peptide: SAGXAY
modifications: here or on the partner: C16 fatty acyl (palmitoyl) tail on the N-terminus of N-methyl-D-Ser2; D-Ala3; N-methyl-4-hydroxyphenylglycine (MeHpg) at 5, written X; biaryl bridge between MeHpg5 and Tyr7 (macrocycle MeHpg5-Ala6-Tyr7); free C-terminal carboxyl; the filing counts the lipid tail as position 1
Turning to B1, the MIC is 8 µg/mL in experiment [1] and < 16 µg/mL in experiment [2].

For the origin of these results see patent publication US20160297851A1, “BROAD SPECTRUM […]” (priority 2012, published 2016).
